# Laboratory results: US20080261241A1, “Targeted ubiquitination of proteins and screening methods using a new class of ubiquitin ligase proteins” (INSTITUT PASTEUR, priority 2007, published 2008)
# Assays:
# Ste7 = biological target: T1, Ste7 (Saccharomyces cerevisiae, UniProt P06784); test: In vitro ubiquitination of Ste7; type: biochemical; settings: Ste7, Ste11-4, Kss1 complexes, native ubiquitin, E1, UbcH5B; anti-Ste7 antibodies
# T1 construct: made in house
# T1 sequence (P06784 1-515): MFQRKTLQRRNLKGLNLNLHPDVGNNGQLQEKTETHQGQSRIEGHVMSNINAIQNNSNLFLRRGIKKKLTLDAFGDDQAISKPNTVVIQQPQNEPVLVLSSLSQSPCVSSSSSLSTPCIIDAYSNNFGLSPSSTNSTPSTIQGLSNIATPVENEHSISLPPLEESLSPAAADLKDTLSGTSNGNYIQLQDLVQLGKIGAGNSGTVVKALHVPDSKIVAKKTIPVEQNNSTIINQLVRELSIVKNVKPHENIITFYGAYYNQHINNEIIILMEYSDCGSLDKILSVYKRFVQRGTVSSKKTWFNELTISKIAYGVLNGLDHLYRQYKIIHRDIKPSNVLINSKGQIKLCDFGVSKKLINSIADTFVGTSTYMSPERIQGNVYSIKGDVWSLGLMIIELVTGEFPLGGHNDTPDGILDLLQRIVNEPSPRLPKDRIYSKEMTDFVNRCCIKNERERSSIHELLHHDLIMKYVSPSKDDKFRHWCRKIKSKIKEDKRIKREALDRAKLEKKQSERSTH
# Description: (§1) Thus, IpaH9.8 is an E3 ubiquitin ligase for Ste7; the proteasome-dependent disappearance of Ste7 in yeast was likely due to the degradation of Ste7 following its polyubiquitination by IpaH9.8 and IpaH7.8.
# (§2) Reactions were incubated at 37° C. for 1 h and stopped by the addition of an equal volume of Laemmli sample buffer (62.5 mM Tris-Hcl, pH 6.8, 10% glycerol, 2% SDS, 0.0005% bromophenol blue) containing, or not, 100 mM DTT. Ubiquitination reactions were carried out in the same manner except that 2 μg of HA-tagged ubiquitin, ubiquitin, ubiquitin-48R or […] were used instead of biotinylated ubiquitin. […] Reaction mixtures were separated by SDS/PAGE, transferred onto a nitrocellulose membrane and probed with specific antibodies or peroxidase-coupled streptavidin when biotinylated ubiquitin was used.
# [1] = test system: pheromone response pathway downstream of Ste4; test: Growth arrest by overproduction of Ste4; type: cell-based, Saccharomyces cerevisiae
# sst2Δ cells = test: Growth of sst2Δ yeast in the presence of pheromone; type: cell-based, Saccharomyces cerevisiae; settings: galactose-induced production, α-factor plates
# [2] = test system: pheromone response pathway at or downstream of Ste11; test: FUS1-HIS3 reporter growth of strain SY2625 with Ste11-4; type: cell-based, Saccharomyces cerevisiae; settings: SY2625 with plasmid encoding Ste11-4; medium lacking histidine with 3-amino triazole
# Source text: To identify the target of IpaH9.8, yeast strains were used that were altered in the signalling cascade. […] The constitutively active variant of the MAPKKK Ste11 encoded by the allele STE11-4 promotes elevated transcription of pheromone responsive genes, even in the absence of pheromone (Stevenson et al., 1992). Growth of the strain SY2625 harbouring a FUS1-HIS3 pheromone-inducible reporter is dependent on signalling through the pheromone response pathway on a medium lacking histidine and containing 3-amino triazole (Evangelista et al., 1997). SY2625 containing a plasmid encoding Ste11-4, but not those containing the vector, were His^+, consistent with activation of the pathway by Ste11-4 and transcription of FUS1-HIS3. […] Upon phosphorylation by Ste11, Ste7 is ubiquitinated and, following removal of ubiquitin chains by the specific deubiquitinase Ubp3, is degraded by the proteasome (Wang et al., 2003).
# MAPKK Ste7 = test: Immunoblot of Ste7 amount in yeast; type: cell-based, Saccharomyces cerevisiae
# ubiquitin = biological target: T2, ubiquitin (Homo sapiens, UniProt P0CG47); test: In vitro autoubiquitination; type: biochemical; settings: E1, UbcH5B
# T2 construct: UbcH7, E1, ubiquitin, HA-ubiquitin, biotinylated ubiquitin, ubiquitin-K48R and -K63R; purchased Boston Biochem
# Description: The amide linkage, but not the thioesther linkage, of ubiquitin to ubiquitinated proteins is resistant to dithiothreitol (DTT).
# as §1, §2
# UbcH5B = biological target: T3, UbcH5B (Homo sapiens, UniProt P62837); test: In vitro removal of ubiquitin from ubiquitinated E2; type: biochemical; settings: biotinylated ubiquitin, E1, UbcH5B
# T3 construct: His; made in house
# T3 sequence (P62837 whole entry): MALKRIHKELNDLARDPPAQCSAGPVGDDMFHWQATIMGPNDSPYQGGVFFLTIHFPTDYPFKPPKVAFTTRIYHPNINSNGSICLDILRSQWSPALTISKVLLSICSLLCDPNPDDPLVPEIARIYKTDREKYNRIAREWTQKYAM
# Description: The observation that the degradation of Ste7 promoted by IpaH9.8 is proteasome-dependent led us to test in vitro if IpaH9.8 might be involved in an ubiquitination pathway. It was discovered that the E2 enzyme UbcH5B was apparently not ubiquitinated by E1 in the presence of GST-IpaH9.8 (FIG. 2B).
# as §2
# HA-tagged ubiquitin [3] = biological target: T4, HA-tagged ubiquitin (Homo sapiens, UniProt P0CG47); test: In vitro polyubiquitination of ubiquitin; type: biochemical; settings: HA-ubiquitin, E1, UbcH5B; anti-HA antibodies
# T4 construct: multiples of the size of HA-ubiquitin (9 kDa); purchased Boston Biochem
# Description: (§3) Ubiquitin biotinylated on Lys residues can not support polyubiquitination reactions. To test if IpaH9.8 could polyubiquitinate proteins, reactions were performed using HA-tagged ubiquitin, instead of biotinylated ubiquitin.
# as §2
# HA-tagged ubiquitin [4] = test: In vitro polyubiquitination of ubiquitin; type: biochemical; settings: K48R and K63R ubiquitin variants
# Description: as §3, §2
# [5] = test system: pheromone response MAPK pathway; test: Pheromone-responsive FUS1-lacZ reporter (β-galactosidase); type: cell-based, Saccharomyces cerevisiae; settings: wild-type yeast, exposure to α-factor
# Source text: (§4) To gain insight to IpaH9.8 activity, Saccharomyces cerevisiae was employed as a surrogate model. […] Detection of mating pheromone by a G protein-coupled receptor activates an archetypal MAPK signalling cascade, inducing both arrest of the cell cycle and transcription of mating genes. The pheromone α-factor diffusing from a disk causes cell cycle arrest in […] cells, resulting in a halo of inhibited growth (Hoffman et al., 2002).
# Invasive wild-type Shigella flexneri 5 M90T-Sm (Allaoui et al., 1992) and its mxiE derivative SF1060 (Mavris et al., 2002) were used for infection. Plasmids were propagated in Escherichia coli DH5α (end A1 hsdR17 sup E44 thi1 recA1 gyrA relA1 lacZYA-argF). To create JRY101, the integrating plasmid pFC23 (O'Rourke and Herskowitz, 1998) containing a FUS-lacZ transcriptional fusion was digested with SphI and transformed into BY4741; Leu+ colonies were tested for pheromone-responsive β-galactosidase production. JRY100 was constructed by PCR-mediated gene disruption in strain BY4741, replacing the entire open reading frame of UBP3 by the Nat marker, as described (Goldstein and McCusker, 1999; Longtine et al., 1998); the gene replacement was confirmed by PCR.
# Standard media and techniques were used for transformation, maintenance, and growth of yeast (Guthrie C, 1991). […]
# [6] = test system: pheromone response MAPK pathway; test: Halo assay with α-factor disk; type: cell-based, Saccharomyces cerevisiae; settings: wild-type yeast, exposure to α-factor
# Source text: as §4
# Standard media and techniques were used for transformation, maintenance, and growth of yeast (Guthrie C, 1991). Halo assays were performed as described (Hoffman et al., 2002) using disks impregnated with 15 μg of α-factor. erg6 ? yeast were transformed with plasmids encoding IpaH9.8 or IpaH9.8-C337A and grown in selective media containing 1% raffinose to mid log phase. Following addition of MG132 (100 μM) and galactose (2%), cultures were incubated for 2 h and cell extracts were prepared as described (Wang et al., 2003). β-Galactosidase assays were performed as described (Guarente, 1983).
# PKN1 = biological target: T5, PKN1 (Homo sapiens, UniProt Q16512); test: In vitro ubiquitination of PKN1; type: biochemical, mammalian; settings: GST-PKN1, E1, native ubiquitin, UbcH5B; anti-PKN1 antibodies
# T5 construct: purchased Invitrogen
# T5 sequence (Q16512 whole entry): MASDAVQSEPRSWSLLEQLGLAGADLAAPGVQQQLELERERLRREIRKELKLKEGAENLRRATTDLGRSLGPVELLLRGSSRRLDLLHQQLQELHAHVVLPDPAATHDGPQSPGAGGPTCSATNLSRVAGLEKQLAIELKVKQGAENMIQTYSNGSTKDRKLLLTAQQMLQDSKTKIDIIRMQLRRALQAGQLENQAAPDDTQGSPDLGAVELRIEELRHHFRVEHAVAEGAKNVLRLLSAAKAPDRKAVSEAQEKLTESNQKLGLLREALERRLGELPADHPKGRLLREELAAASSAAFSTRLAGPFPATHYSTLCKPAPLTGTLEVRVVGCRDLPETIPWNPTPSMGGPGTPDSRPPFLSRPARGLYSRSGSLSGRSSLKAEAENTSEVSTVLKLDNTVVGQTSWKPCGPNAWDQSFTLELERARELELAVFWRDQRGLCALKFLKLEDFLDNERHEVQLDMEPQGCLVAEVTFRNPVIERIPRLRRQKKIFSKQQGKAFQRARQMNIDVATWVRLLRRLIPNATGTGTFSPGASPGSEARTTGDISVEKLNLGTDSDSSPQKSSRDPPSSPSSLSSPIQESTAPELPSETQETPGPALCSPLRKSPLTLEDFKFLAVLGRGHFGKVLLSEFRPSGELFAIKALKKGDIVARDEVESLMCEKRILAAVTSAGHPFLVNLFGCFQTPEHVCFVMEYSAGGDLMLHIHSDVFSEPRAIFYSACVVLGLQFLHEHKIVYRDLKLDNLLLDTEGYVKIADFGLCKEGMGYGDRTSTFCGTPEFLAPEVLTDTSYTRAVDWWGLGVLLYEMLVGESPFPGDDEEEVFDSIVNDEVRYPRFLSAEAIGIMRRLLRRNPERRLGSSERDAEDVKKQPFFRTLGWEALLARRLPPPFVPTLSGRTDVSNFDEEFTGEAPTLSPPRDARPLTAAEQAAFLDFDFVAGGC
# Description: To test whether SspH1 shares activities with IpaH9.8, a GST-SspH1 recombinant protein was purified. […] Ubiquitination of PKN1 by SspH1; SspH1, IpaH9.8, or IpaH9.8-C337A was incubated with E1, native ubiquitin, UbcH5B, and GST-PKN1 was tested.
# as §2
Molecule,ubiquitination of Ste7 (Ste7),rescue of growth arrest [1],growth of sst2Δ cells in the presence of pheromone (sst2Δ cells),His phenotype (FUS1-HIS3 reporter) [2],disappearance of Ste7 (MAPKK Ste7; ubp3Δ and ste11Δ cells),"amount of Ste7 (MAPKK Ste7; wild-type yeast, regardless of stimulation by α-factor)",autoubiquitination (DTT-resistant ubiquitinated protein) (ubiquitin; biotinylated ubiquitin),"autoubiquitination (anti-IpaH antibodies) (ubiquitin; native ubiquitin, MAPK complexes)",removal of ubiquitin from ubiquitinated UbcH5B (UbcH5B),polyubiquitination of HA-tagged ubiquitin (HA-tagged ubiquitin [3]),linkage of polyubiquitin chains (HA-tagged ubiquitin [4]),expression of FUS1-lacZ reporter gene [5],halo of inhibited growth [6],ubiquitination of PKN1 (PKN1)
"IpaH9.8: Shigella flexneri type III secretion effector protein (SEQ ID NO: 4), E3 ubiquitin ligase; used FLAG-tagged in yeast, GST-fused in vitro (protein, listed as Shigella flexneri, FLAG tag or GST fusion, used FLAG-tagged in yeast, GST-fused in vitro) MLPINNNFSLPQNSFYNTISGTYADYFSAWDKWEKQALPGEERDEAVSRLKECLINNSDELRLDRLNLSSLPDNLPAQITLLNVSYNQLTNLPELPVTLKKLYSASNKLSELPVLPPALESLQVQHNELENLPALPDSLLTMNISYNEIVSLPSLPQALKNLRATRNFLTELPAFSEGNNPVVREYFFDRNQISHIPESILNLRNECSIHISDNPLSSHALQALQRLTSSPDYHGPRIYFSMSDGQQNTLHRPLADAVTAWFPENKQSDVSQIWHAFEHEEHANTFSAFLDRLSDTVSARNTSGFREQVAAWLEKLSASAELRQQSFAVAADATESCEDRVALTWNNLRKTLLVHQASEGLFDNDTGALLSLGREMFRLEILEDIARDKVRTLHFVDEIEVYLAFQTMLAEKLQLSTAVKEMRFYGVSGVTANDLRTAEAMVRSREENEFTDWFSLWGPWHAVLKRTEADRWAQAEEQKYEMLENEYPQRVADRLKASGLSGDADAEREAGAQVMRETEQQIYRQLTDEVLALRLSENGSQLHHS",larger species that formed only in the presence of IpaH9.8 were detected,rescued this phenotype,allowed sst2Δ cells to grow in the presence of pheromone,His^−,still resulted in the disappearance of Ste7,drastically reduced,a DTT-resistant ubiquitinated protein of the size of GST-IpaH9.8 (FIG. 3) was detected,Both the non- and mono-ubiquitinated forms of IpaH9.8 were detected,promoted the removal of ubiquitin from UbcH5B,detected a ladder of ubiquitinated proteins,"catalyzed the formation of polyubiquitin chains on Lys-48, but not Lys-63",failed to form a halo and to induce expression,failed to form a halo,–
"SspH1: Salmonella enterica Typhimurium homologue of IpaH, type III secretion effector; GST-SspH1 recombinant protein (protein, left off: a dimerising Fc or GST) EFMLPINNNFSLPQNSFYNTISGTYADYFSAWDKWEKQALPGEERDEAVSRLKECLINNSDELRLDRLNLSSLPDNLPAQITLLNVSYNQLTNLPELPVTLKKLYSASNKLSELPVLPPALESLQVQHNELENLPALPDSLLTMNISYNEIVSLPSLPQALKNLRATRNFLTELPAFSEGNNPVVREYFFDRNQISHIPESILNLRNECSIHISDNPLSSHALQALQRLTSSPDYHGPRIYFSMSDGQQNTLHRPLADAVTAWFPENKQSDVSQIWHAFEHEEHANTFSAFLDRLSDTVSARNTSGFREQVAAWLEKLSASAELRQQSFAVAADATESCEDRVALTWNNLRKTLLVHQASEGLFDNDTGALLSLGREMFRLEILEDIARDKVRTLHFVDEIEVYLAFQTMLAEKLQLSTAVKEMRFYGVSGVTANDLRTAEAMVRSREENEFTDWFSLWGPWHAVLKRTEADRWAQAEEQKYEMLENEYPQRVADRLKASGLSGDADAEREAGAQVMRETEQQIYRQLTDEVLALRLFENGSQLHHS",–,–,–,–,–,–,–,–,–,–,–,–,–,detected an additional species migrating at a size >250 kDa
